Earlier results in article PMC10743670.
Read-outs that look alike come from different tables or passages of the source.

Assays:
Asp97 = Asp97 (UniProt position 97, VFRYIDWLLTV); conditions: ground state
Asp85 [1] = target: Asp85 (UniProt position 85, EIRYIDWLVTT); conditions: ground state
Asp85 [2] = target: Asp85 (UniProt position 98, WAQYADWLFTT); conditions: ground state of the R82Q mutant
Asp85 [3] = target: T1, Asp85 (UniProt position 98, WARYADWLFTT); conditions: ground (unphotolysed) state of bacteriorhodopsin; purple-to-blue transition
Asp85 [4] = target: T1, Asp85; test: other (described only as 'a titration of bacteriorhodopsin'); conditions: bacteriorhodopsin with the proton release group deprotonated

Proteorhodopsin (PR) (uncultured marine gamma-proteobacterium (printed as 'marine γ-proteobacteria'))
pKa (Asp97): ∼7.0

Exiguobacterium sibiricum rhodopsin (ESR) (Exiguobacterium sibiricum)
pKa (Asp85 [1]): <2

Exiguobacterium sibiricum rhodopsin (ESR) H57M mutant (Exiguobacterium sibiricum; H57M)
pKa (Asp85 [1]): 6.3

Bacteriorhodopsin R82Q mutant (Halobacterium salinarum (printed as Halobacterium halobium); R82Q)
pKa (Asp85 [2]): ≈7.5

Bacteriorhodopsin (bR) (Halobacterium salinarum (printed as Halobacterium halobium))
pKa (Asp85 [3]): ≈2.7
pKa (Asp85 [4]): ≈7.5
